{"source": "paper PMC5629373", "proteins": {"B1": {"name": "STAT5A (S5; hyperactive variant cS5): T92A (protein)", "parent chain": "MAGWIQAQQLQGDALRQMQVLYGQHFPIEVRHYLAQWIESQPWDAIDLDNPQDRGQATQLLEGLVQELQKKAEHQVGEDGFLLKIKLGHYATQLQNTYDRCPMELVRCIRHILYNEQRLVREANNCSSPAGVLVDAMSQKHLQINQRFEELRLITQDTENELKKLQQTQEYFIIQYQESLRIQAQFAQLGQLNPQERMSRETALQQKQVSLETWLQREAQTLQQYRVELAEKHQKTLQLLRKQQTIILDDELIQWKRRQQLAGNGGPPEGSLDVLQSWCEKLAEIIWQNRQQIRRAEHLCQQLPIPGPVEEMLAEVNATITDIISALVTSTFIIEKQPPQVLKTQTKFAATVRLLVGGKLNVHMNPPQVKATIISEQQAKSLLKNENTRNECSGEILNNCCVMEYHQATGTLSAHFRNMSLKRIKRADRRGAESVTEEKFTVLFESQFSVGSNELVFQVKTLSLPVVVIVHGSQDHNATATVLWDNAFAEPGRVPFAVPDKVLWPQLCEALNMKFKAEVQSNRGLTKENLVFLAQKLFNISSNHLEDYNSMSVSWSQFNRENLPGWNYTFWQWFDGVMEVLKKHHKPHWNDGAILGFVNKQQAHDLLINKPDGTFLLRFSDSEIGGITIAWKFDSPDRNLWNLKPFTTRDFSIRSLADRLGDLNYLIYVFPDRPKDEVFAKYYTPVLAKAVDGYVKPQIKQVVPEFVNASTDAGASATYMDQAPSPVVCPQPHYNMYPPNPDPVLDQDGEFDLDESMDVARHVEELLRRPMDSLDARLSPPAGLFTSARSSLS"}, "B2": {"name": "STAT5A (S5; hyperactive variant cS5): S5-T92A (protein)", "parent chain": "B1 parent chain"}, "B3": {"name": "STAT5A (S5; hyperactive variant cS5): cS5-T92A (protein)", "parent chain": "B1 parent chain"}}, "key": {"[1]": {"experiment": "oligomer EMSA, 293T, loading adapted to STAT5 activity", "conditions": "glycan lost; control: constructs without T92A"}, "[2]": {"experiment": "immunoblot, 293T with EpoR, EPO stimulation", "conditions": "glycan lost; control: matching construct without T92A (S5, cS5)"}, "[3]": {"experiment": "total STAT5 immunoblot, Ba/F3", "conditions": "glycan lost; control: cS5"}, "[4]": {"experiment": "phospho-serine immunoblot, Ba/F3", "conditions": "glycan lost; control: cS5"}, "[5]": {"experiment": "pYSTAT5 immunoblot, Ba/F3 cells ± IL-3", "conditions": "glycan lost; control: cS5"}, "[6]": {"experiment": "pYSTAT5 immunoblot time course after IL-3 withdrawal, Ba/F3", "conditions": "glycan lost; control: cS5"}}}
{"protein": "B1", "values": [{"measurement": "oligomerisation", "setting": "[1]", "value": "no change"}]}
{"protein": "B2", "values": [{"measurement": "other: tyrosine phosphorylation (pYSTAT5)", "setting": "[2]", "value": "no change"}]}
{"protein": "B3", "values": [{"measurement": "expression_or_secretion", "setting": "[3]", "value": "no change"}, {"measurement": "other: serine 725/779 phosphorylation", "setting": "[4]", "value": "no change"}, {"measurement": "other: tyrosine phosphorylation (pYSTAT5)", "setting": "[5]", "value": "decreases"}, {"measurement": "other: tyrosine phosphorylation (pYSTAT5)", "setting": "[2]", "value": "no change"}, {"measurement": "other: persistence of tyrosine phosphorylation", "setting": "[6]", "value": "decreases"}]}
